Assay: ThermoFluor thermostability (Tm)
Format: physicochemical
Conditions: Light chain screening Round 2; Fab, paired with heavy chain AB200_R1_VH26

Row | Molecule | Tm [°C]
1 | AB200-R1H26-R2Vk18 (antibody) heavy: QVQLVQSGAEVKKPGSSVKVSCKASGGSFSNYWMHWVRQAPGQGLEWMGATYRIHSDTFYNQKFKGRVTITADKSTSTAYMELSSLRSEDTAVYYCARGAIYHGYDVLDNWGQGTLVTVSSASTKGPSVFPLAPSSKSTSGGTAALGCLVKDYFPEPVTVSWNSGALTSGVHTFPAVLQSSGLYSLSSVVTVPSSSLGTQTYICNVNHKPSNTKVDKKVEPKSC light: DIQMTQSPSSLSASVGDRVTITCRASQSISSYINWYQQKPGKAPKLLIYAASSLQSGVPSRFSGSGSGTDFTLTISSLQPEDFATYYCQQFRKIPWTFGQGTKLEIKRTVAAPSVFIFPPSDEQLKSGTASVVCLLNNFYPREAKVQWKVDNALQSGNSQESVTEQDSKDSTYSLSSTLTLSKADYEKHKVYACEVTHQGLSSPVTKSFNRGEC | 82.729
2 | AB200-R1H26-R2Vk41 (antibody) heavy: QVQLVQSGAEVKKPGSSVKVSCKASGGSFSNYWMHWVRQAPGQGLEWMGATYRIHSDTFYNQKFKGRVTITADKSTSTAYMELSSLRSEDTAVYYCARGAIYHGYDVLDNWGQGTLVTVSSASTKGPSVFPLAPSSKSTSGGTAALGCLVKDYFPEPVTVSWNSGALTSGVHTFPAVLQSSGLYSLSSVVTVPSSSLGTQTYICNVNHKPSNTKVDKKVEPKSC light: DIQMTQSPSSLSASVGDRVTITCRASQSISSYINWYQQKPGKAPKLLIYATSNIQSGVPSRFSGSGSGTDFTLTISSLQPEDFATYYCQQFRRLPWTFGQGTKLEIKRTVAAPSVFIFPPSDEQLKSGTASVVCLLNNFYPREAKVQWKVDNALQSGNSQESVTEQDSKDSTYSLSSTLTLSKADYEKHKVYACEVTHQGLSSPVTKSFNRGEC | 83.256
3 | AB200-R1H26-R2Vk38 (antibody) heavy: QVQLVQSGAEVKKPGSSVKVSCKASGGSFSNYWMHWVRQAPGQGLEWMGATYRIHSDTFYNQKFKGRVTITADKSTSTAYMELSSLRSEDTAVYYCARGAIYHGYDVLDNWGQGTLVTVSSASTKGPSVFPLAPSSKSTSGGTAALGCLVKDYFPEPVTVSWNSGALTSGVHTFPAVLQSSGLYSLSSVVTVPSSSLGTQTYICNVNHKPSNTKVDKKVEPKSC light: DIQMTQSPSSLSASVGDRVTITCRASQSISSYINWYQQKPGKAPKLLIYATSNLQSGVPSRFSGSGSGTDFTLTISSLQPEDFATYYCQQFRKIPWTFGQGTKLEIKRTVAAPSVFIFPPSDEQLKSGTASVVCLLNNFYPREAKVQWKVDNALQSGNSQESVTEQDSKDSTYSLSSTLTLSKADYEKHKVYACEVTHQGLSSPVTKSFNRGEC | 83.791
4 | AB200-R1H26-R2Vk40 (antibody) heavy: QVQLVQSGAEVKKPGSSVKVSCKASGGSFSNYWMHWVRQAPGQGLEWMGATYRIHSDTFYNQKFKGRVTITADKSTSTAYMELSSLRSEDTAVYYCARGAIYHGYDVLDNWGQGTLVTVSSASTKGPSVFPLAPSSKSTSGGTAALGCLVKDYFPEPVTVSWNSGALTSGVHTFPAVLQSSGLYSLSSVVTVPSSSLGTQTYICNVNHKPSNTKVDKKVEPKSC light: DIQMTQSPSSLSASVGDRVTITCRASQSISSYINWYQQKPGKAPKLLIYATSNIQSGVPSRFSGSGSGTDFTLTISSLQPEDFATYYCQQYRRIPWTFGQGTKLEIKRTVAAPSVFIFPPSDEQLKSGTASVVCLLNNFYPREAKVQWKVDNALQSGNSQESVTEQDSKDSTYSLSSTLTLSKADYEKHKVYACEVTHQGLSSPVTKSFNRGEC | 79.308
5 | AB200-R1H26-R2Vk39 (antibody) heavy: QVQLVQSGAEVKKPGSSVKVSCKASGGSFSNYWMHWVRQAPGQGLEWMGATYRIHSDTFYNQKFKGRVTITADKSTSTAYMELSSLRSEDTAVYYCARGAIYHGYDVLDNWGQGTLVTVSSASTKGPSVFPLAPSSKSTSGGTAALGCLVKDYFPEPVTVSWNSGALTSGVHTFPAVLQSSGLYSLSSVVTVPSSSLGTQTYICNVNHKPSNTKVDKKVEPKSC light: DIQMTQSPSSLSASVGDRVTITCRASQSISSYINWYQQKPGKAPKLLIYATSNIQSGVPSRFSGSGSGTDFTLTISSLQPEDFATYYCQQYRRLPWSFGQGTKLEIKRTVAAPSVFIFPPSDEQLKSGTASVVCLLNNFYPREAKVQWKVDNALQSGNSQESVTEQDSKDSTYSLSSTLTLSKADYEKHKVYACEVTHQGLSSPVTKSFNRGEC | 78.907
6 | AB200-R1H26-R2Vk2 (antibody) heavy: QVQLVQSGAEVKKPGSSVKVSCKASGGSFSNYWMHWVRQAPGQGLEWMGATYRIHSDTFYNQKFKGRVTITADKSTSTAYMELSSLRSEDTAVYYCARGAIYHGYDVLDNWGQGTLVTVSSASTKGPSVFPLAPSSKSTSGGTAALGCLVKDYFPEPVTVSWNSGALTSGVHTFPAVLQSSGLYSLSSVVTVPSSSLGTQTYICNVNHKPSNTKVDKKVEPKSC light: DIQMTQSPSSLSASVGDRVTITCRASQSISSYINWYQQKPGKAPKLLIYAASSLQSGVPSRFSGSGSGTDFTLTISSLQPEDFATYYCQQFRKLPWSFGQGTKLEIKRTVAAPSVFIFPPSDEQLKSGTASVVCLLNNFYPREAKVQWKVDNALQSGNSQESVTEQDSKDSTYSLSSTLTLSKADYEKHKVYACEVTHQGLSSPVTKSFNRGEC | 82.119
7 | AB200-R1H26-R2Vk43 (antibody) heavy: QVQLVQSGAEVKKPGSSVKVSCKASGGSFSNYWMHWVRQAPGQGLEWMGATYRIHSDTFYNQKFKGRVTITADKSTSTAYMELSSLRSEDTAVYYCARGAIYHGYDVLDNWGQGTLVTVSSASTKGPSVFPLAPSSKSTSGGTAALGCLVKDYFPEPVTVSWNSGALTSGVHTFPAVLQSSGLYSLSSVVTVPSSSLGTQTYICNVNHKPSNTKVDKKVEPKSC light: DIQMTQSPSSLSASVGDRVTITCRASQSISSYINWYQQKPGKAPKLLIYATSNIQSGVPSRFSGSGSGTDFTLTISSLQPEDFATYYCQQFRKIPWTFGQGTKLEIKRTVAAPSVFIFPPSDEQLKSGTASVVCLLNNFYPREAKVQWKVDNALQSGNSQESVTEQDSKDSTYSLSSTLTLSKADYEKHKVYACEVTHQGLSSPVTKSFNRGEC | 82.001
8 | AB200-R1H26-R2Vk37 (antibody) heavy: QVQLVQSGAEVKKPGSSVKVSCKASGGSFSNYWMHWVRQAPGQGLEWMGATYRIHSDTFYNQKFKGRVTITADKSTSTAYMELSSLRSEDTAVYYCARGAIYHGYDVLDNWGQGTLVTVSSASTKGPSVFPLAPSSKSTSGGTAALGCLVKDYFPEPVTVSWNSGALTSGVHTFPAVLQSSGLYSLSSVVTVPSSSLGTQTYICNVNHKPSNTKVDKKVEPKSC light: DIQMTQSPSSLSASVGDRVTITCRASQSISSYINWYQQKPGKAPKLLIYATSNLQSGVPSRFSGSGSGTDFTLTISSLQPEDFATYYCQQYRKIPWSFGQGTKLEIKRTVAAPSVFIFPPSDEQLKSGTASVVCLLNNFYPREAKVQWKVDNALQSGNSQESVTEQDSKDSTYSLSSTLTLSKADYEKHKVYACEVTHQGLSSPVTKSFNRGEC | 79.374
9 | AB200-R1H26-R2Vk27 (antibody) heavy: QVQLVQSGAEVKKPGSSVKVSCKASGGSFSNYWMHWVRQAPGQGLEWMGATYRIHSDTFYNQKFKGRVTITADKSTSTAYMELSSLRSEDTAVYYCARGAIYHGYDVLDNWGQGTLVTVSSASTKGPSVFPLAPSSKSTSGGTAALGCLVKDYFPEPVTVSWNSGALTSGVHTFPAVLQSSGLYSLSSVVTVPSSSLGTQTYICNVNHKPSNTKVDKKVEPKSC light: DIQMTQSPSSLSASVGDRVTITCRASQSISSYLNWYQQKPGKAPKLLIYATSNIQSGVPSRFSGSGSGTDFTLTISSLQPEDFATYYCQQYRKIPWSFGQGTKLEIKRTVAAPSVFIFPPSDEQLKSGTASVVCLLNNFYPREAKVQWKVDNALQSGNSQESVTEQDSKDSTYSLSSTLTLSKADYEKHKVYACEVTHQGLSSPVTKSFNRGEC | 79.104
10 | AB200-R1H26-R2Vk42 (antibody) heavy: QVQLVQSGAEVKKPGSSVKVSCKASGGSFSNYWMHWVRQAPGQGLEWMGATYRIHSDTFYNQKFKGRVTITADKSTSTAYMELSSLRSEDTAVYYCARGAIYHGYDVLDNWGQGTLVTVSSASTKGPSVFPLAPSSKSTSGGTAALGCLVKDYFPEPVTVSWNSGALTSGVHTFPAVLQSSGLYSLSSVVTVPSSSLGTQTYICNVNHKPSNTKVDKKVEPKSC light: DIQMTQSPSSLSASVGDRVTITCRASQSISSYINWYQQKPGKAPKLLIYATSNIQSGVPSRFSGSGSGTDFTLTISSLQPEDFATYYCQQYRKIPWSFGQGTKLEIKRTVAAPSVFIFPPSDEQLKSGTASVVCLLNNFYPREAKVQWKVDNALQSGNSQESVTEQDSKDSTYSLSSTLTLSKADYEKHKVYACEVTHQGLSSPVTKSFNRGEC | 78.411
11 | AB200-R1H26-R2Vk47 (antibody) heavy: QVQLVQSGAEVKKPGSSVKVSCKASGGSFSNYWMHWVRQAPGQGLEWMGATYRIHSDTFYNQKFKGRVTITADKSTSTAYMELSSLRSEDTAVYYCARGAIYHGYDVLDNWGQGTLVTVSSASTKGPSVFPLAPSSKSTSGGTAALGCLVKDYFPEPVTVSWNSGALTSGVHTFPAVLQSSGLYSLSSVVTVPSSSLGTQTYICNVNHKPSNTKVDKKVEPKSC light: DIQMTQSPSSLSASVGDRVTITCRASQSISSYINWYQQKPGKAPKLLIYATSNLQIGVPSRFSGSGSGTDFTLTISSLQPEDFATYYCQQYRKIPWSFGQGTKLEIKRTVAAPSVFIFPPSDEQLKSGTASVVCLLNNFYPREAKVQWKVDNALQSGNSQESVTEQDSKDSTYSLSSTLTLSKADYEKHKVYACEVTHQGLSSPVTKSFNRGEC | 78.634
12 | AB200-R1H26-R2Vk28 (antibody) heavy: QVQLVQSGAEVKKPGSSVKVSCKASGGSFSNYWMHWVRQAPGQGLEWMGATYRIHSDTFYNQKFKGRVTITADKSTSTAYMELSSLRSEDTAVYYCARGAIYHGYDVLDNWGQGTLVTVSSASTKGPSVFPLAPSSKSTSGGTAALGCLVKDYFPEPVTVSWNSGALTSGVHTFPAVLQSSGLYSLSSVVTVPSSSLGTQTYICNVNHKPSNTKVDKKVEPKSC light: DIQMTQSPSSLSASVGDRVTITCRASQSISSYLNWYQQKPGKAPKLLIYATSNIQSGVPSRFSGSGSGTDFTLTISSLQPEDFATYYCQQFRKIPWTFGQGTKLEIKRTVAAPSVFIFPPSDEQLKSGTASVVCLLNNFYPREAKVQWKVDNALQSGNSQESVTEQDSKDSTYSLSSTLTLSKADYEKHKVYACEVTHQGLSSPVTKSFNRGEC | 82.966

Source: US12043670B2, “Anti-BCMA antibody-drug conjugates and methods of use” (Eisai R&D Management Co., Ltd., priority 2020, dated 2024)
